Measurements: the RNAGym collection of RNA variant scans (doi:10.1073/pnas.2313332121)

B1: TPR t1 (parent)
chain: GACCAAUCUGCCCUCAGAGCUCGAGAACAUCUUCGGAUGCAGAGGAGGCAGGCUUCGGUGGCGCGAUAGCGCCAACGUCCUCAACCUCCAAUGCAUCCCACCACAUGAUGAUGCCUGAAGAGCCUUGGUUUUUUG

Variants of: B1
Test: polymerase ribozyme fitness, log enrichment relative to wild type (log ratio); higher = more active; in vitro selection for triplet polymerase activity
Summary of the method: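 For each subunit of a heterodimeric triplet polymerase ribozyme, a mutant library was built by PCR and transcribed, then taken through a single in vitro selection round in triplicate. Selection involved annealing to a biotinylated primer, the partner subunit and triplets, incubation frozen at −7 °C, gel excision of extended constructs, capture on streptavidin beads and RT-PCR. Genotypes were retained after Illumina sequencing of inputs and outputs only with ≥10 input reads and ≥1 read in each output. Fitness is defined as the logarithm of a genotype's enrichment relative to wild-type enrichment, using inverse-variance-weighted averages across replicates, with the logarithm taken to base 2.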

Point of comparison: G77C A121U, “polymerase ribozyme fitness (log ratio)” value 0.189. Against it:
- C80G G117C — lower, -6.43
- G77A C101A G117A — lower, -3.06
- U78C G93A C101U C123U — lower, -0.0122
- C80U A118C — lower, -3.16
- U78C C80A U116G G120C C123A — lower, -1.86
- C79U G107A — lower, -4.41
- C79A G93A G110U — lower, -4.93
- U78A C114U — lower, -1.83
- U78C C89U C115A — lower, -0.146
- C80A G113C — lower, -5.5
- C80A G113A — lower, -3.03
- U78C C89U G93U — lower, -1.09
- U78C A105G U112G — lower, -3.99
- U78C A83U G107U — lower, -5.42
- C79A C115G A118U — lower, -4.7
- C79G A121C — within 0.2 log units, 0.144
- G77A U132C — lower, -0.208
- U78C C98U U112A U130A — lower, -3.27
- U78A C85U U112A — higher, 0.505
- C79A A91G — lower, -2.3
- C79A A84G — lower, -3.26
- U78A G113A — lower, -1.22
- U78A G113U — lower, -3.98
- G77U U131G — lower, -1.01
- U78C A84C G113U G128A — lower, -4.29
- C79G C85U — lower, -2.29
- U78G C123A — lower, -1.06
- U78C C94A — lower, -0.785
- C79U A95C G120A — within 0.2 log units, -0.000389
- C80U C114U — lower, -2.33
- G77A G110A — lower, -1.28
- G77A G110U — lower, -1.1
- U78G A103C U130C — lower, -5.75
- U78A C101G — lower, -2.13
- C80A A95U C114U C124U — lower, -7.55
- U78A C102A U112A — lower, -1.54
- U78A U131C — within 0.2 log units, 0.382
- G77U C88U C115U U131A — lower, -1.33
- G77C C86U A90C U125A — lower, -1.83
- C80U C123A U129C — lower, -1.18
- C79U C114A G120C G127U — lower, -1.06
- C79A U106G — lower, -3.37
- C80A A84C — lower, -3.11
- U78C A83C C89G — lower, -2.02
- U78A A95U U112G U133A — higher, 0.61
- C80A G93A — lower, -3.95
- C80A C115U — lower, -4.97
- U78C C82U C123G G127C — lower, -1.21
- U78C C97U A103U C123G — lower, -4.59
- C80G A118U — lower, -5.08
- C79G U116A — lower, -4.35
- G77U A103C — lower, -4.83
- G77A C115U G128A — lower, -3.21
- C80U C94G — lower, -1.73
- U78A G135U — lower, -0.889
- U78C A121C — higher, 1.83
- C80A U112G — lower, -4.16
- C80U C88U — lower, -0.555
- C80U G113C G135C — lower, -2.92
- U78C G93C U96C C115A — lower, -1.13
- G77A U87A C101G — lower, -2.13
- C79A A105U — lower, -4.41
- U78A A118G — lower, -0.761
- G77C U130G — lower, -1.48
- G77A C80A G120U — lower, -2.54
- C79U C88U C97U — lower, -0.508
- G77A C80U G113A — lower, -1.46
- C79A C88G — lower, -2.33
- C79A C88A — lower, -1.22
- U78C C86G — lower, -0.656
- C79U U129G — lower, -1.35
- U78G U112G — higher, 1.33
- G77C C124U — higher, 1.82
- C80A C94U — lower, -2.69
- U78G A90C — lower, -1.6
- U78C U106G — lower, -1.09
- C79A C123A — lower, -0.392
- C80U A105C U112G G120C — lower, -3.27
- U78A U87A — lower, -0.201
- C80U C98A U132C — lower, -5.2
- C79A G120C — higher, 0.837
- C79U G117A U125G — lower, -1.82
- U78A U133A — lower, -0.443
- U78G G113A U130C — lower, -1.64
- G77A C80U — lower, -0.237
- C79G C123G U133A — higher, 0.663
- G77A C114G U130C — lower, -2.63
- U78C U129A — lower, -1.01
- C80U G127C — lower, -3.21
- G77A C97U — lower, -0.317
- G77U G117A — lower, -1.62
- G77C C124U G127A U129A — lower, -0.0326
- U78C A100U — lower, -0.819
- C80A C94A U112C — lower, -2.27
- C79A — lower, -1.04
- C79G — lower, -1.54
- C79U — lower, -0.19
- C80U C86U C114G C124G U125A — lower, -3.38
- U78C C97G C104A — lower, -4.78
- U78A C94A — lower, -0.841
- C80G U106A G122A — lower, -6.86
- G77C C79U — higher, 0.563
- C79A C80G — lower, -5.91
- U78G C79A A118G U130G — lower, -2.19
- C80U A83G — lower, -1.23
- U78C C115A — lower, -0.63
- C76U G120C — higher, 0.737
- C79U U106A U116G — lower, -2.6
- U78C A118G — lower, -0.499
- C80A A91G G120U — lower, -5.41
- U78C C104A G113U — lower, -4.71
- C79A G117U — lower, -3.95
- C80A G117U — lower, -5.19
- C79U U96G — lower, -0.798
- C80A G120C — lower, -2.2
- C80A G120U — lower, -2.35
- G77U C89U — lower, -0.519
- C80U G107A — lower, -6.42
- U78C C104A — lower, -1.61
- U78C C104U — within 0.2 log units, 0.332
- U78G C82G — lower, -0.36
- U78A C89G — lower, -1.56
- U78G C88G — lower, -0.734
- U78C A91G — lower, -1.15
- C80U G113C — lower, -3.19
- C80G A100C U131A — lower, -5.8
- C76U U78G — lower, -0.0426
- U78G C101G — lower, -1.76
- U78C A90C — lower, -0.796
- U78A G107A — lower, -5.55
- U78C U116G G117A — lower, -2.14
- U78G U87C — higher, 0.411
- U78C G93A — lower, -0.707
- U78A U96C C104U — within 0.2 log units, 0.046
- C79A G117U G120C — lower, -3.42
- C79U C80U — lower, -2.32
- C79U U130A — lower, -1.2
- U78C C85G U106A — lower, -2.34
- U78A C79U — within 0.2 log units, 0.293
- G77C U81G — lower, -1.57
- C80U C98U C115A C124G — lower, -0.376
- C80G U87A A90U A111C — lower, -6.64
- C79A U112A C115A C123G — within 0.2 log units, 0.259
- C79G A84U — lower, -2.3
- U78C U87G C88A G113A G127A — lower, -3.89
- U78C C89A — lower, -0.68
- C79U A111U A121U — lower, -3.62
- C80A C86U — lower, -3.32
- U78A C94G C101A — lower, -1.93
- U78C C88U — within 0.2 log units, 0.285
- C79A C114G — lower, -4.53
- C79A C114A — lower, -2.46
- U78A G93C — lower, -0.506
- U78C G135U — lower, -1.27
- C79G A108G — lower, -3.63
- U78G G120U — lower, -0.202
- C79U G93C A100U U112G — lower, -2.61
- C79U C101G — lower, -1.8
- C79A C115G — lower, -2.56
- C79U A95C — lower, -0.848
- U78C G128A — lower, -1.95
- C80A A118G — lower, -3.23
- C80U C98G — lower, -6.73
- U78C U81A A83G — lower, -0.944
- C80A C97A G107U C115U — lower, -7.92
- C79G C88G U112A — lower, -1.98
